Reference: the supplement of paper PMC7877785
± gives the uncertainty stated by the source.

Test: self-splicing fitness, log relative to wild type (ln ratio); higher = more splicing; Tetrahymena group I intron in knt gene, E. coli kanamycin selection, DiMSum; sequences stand for … in CUCUCU…GGAGGGAAAAGUUAUCAGGCAUGCACCUGGUAGCUAGUCUUUAAACCAAUAGAUUGCAUCGGUUUAAAAGGCAAGACCGUCAAAUUGCGGGAAAGGGGUCAACAGCCGUUCAGUACCAAGUCUCAGGGGAAACUUUGAGAUGGCCUUGCAAAGGGUAUGGUAAUAAGCUGACGGACAUGGUCCUAACCACGCAGCCAAGUCCUAAGUCAACAGAUCUUCUGUUGAUAUGGAUGCAGUUCACAGACUAAAUGUCGGUCGGGGAAGAUGUAUUCUUCUCAUAAGAUAUAGUCGGACCUCUCCUUAAUGGGAGCUAGCGGAUGAAGUGAUGCAACACUGGAGCCGCUGGGAACUAAUUUGUAUGCGAAAGUAUAUUGAUUAGUUUUGGAGUACUCGUGGUCG
Outline: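 Fitness was computed with DiMSum as the error-weighted combination of replicate fold changes, kanamycin versus none, each normalised to wild type. The library randomised all eight intron nucleotides of the P1ex region, with the intron placed in the knt kanamycin-resistance gene on pET-22b(+) in E. coli BL21(DE3). Six replicate transformations were grown overnight at 37°C or 30°C on LB agar with or without 25 μg/mL kanamycin, plus 100 μg/mL carbenicillin, 50 μM IPTG and 0.2% rhamnose. Pooled colonies were amplicon-sequenced on an Illumina HiSeq 2500.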

| Sequence | self-splicing fitness (ln) (30 °C) | self-splicing fitness (ln) (37 °C) |
| --- | --- | --- |
| UGUAAGCAAUAUUACGCUAU | -3.7 ± 0.32 | -2.24 ± 0.29 |
| UUCCAGCAAUAUUACGCGUA | -0.454 ± 0.087 | 0.0549 ± 0.083 |
| GCGUAGCAAUAUUACGGAAG | -3.56 ± 0.31 | -1.98 ± 0.33 |
| UCAAAGCAAUAUUACGAGUA | -2.07 ± 0.083 | -0.678 ± 0.072 |
| UGGAAGCAAUAUUACGGUGC | -2.93 ± 0.3 | -2.86 ± 0.43 |
| GACAAGCAAUAUUACGGAGU | -3.03 ± 0.1 | -0.954 ± 0.1 |
| UCGGAGCAAUAUUACGUGCG | -2.06 ± 0.093 | -1.32 ± 0.11 |
| GGUGAGCAAUAUUACGUUAC | -3.12 ± 0.47 | -0.718 ± 0.24 |
| CCACAGCAAUAUUACGGGGG | -2.71 ± 0.093 | -2.4 ± 0.16 |
| UCACAGCAAUAUUACGAAUU | -4.34 ± 0.22 | -2.4 ± 0.16 |
| CCUGAGCAAUAUUACGAUGG | -4.46 ± 0.21 | -2.58 ± 0.19 |
| GCUUAGCAAUAUUACGGUAG | -2.53 ± 0.4 | – |
| GCUCAGCAAUAUUACGAACU | -0.913 ± 0.068 | -0.48 ± 0.079 |
| GCCUAGCAAUAUUACGGGAA | -0.327 ± 0.091 | 0.158 ± 0.11 |
| ACGGAGCAAUAUUACGUUAA | -2.65 ± 0.23 | -3.13 ± 0.47 |
| ACCUAGCAAUAUUACGCGCU | 0.00461 ± 0.076 | -0.0669 ± 0.096 |
| UGACAGCAAUAUUACGUCGA | -0.222 ± 0.092 | -0.143 ± 0.098 |
| UAUCAGCAAUAUUACGUACA | -0.141 ± 0.058 | -0.199 ± 0.07 |
| UGCGAGCAAUAUUACGGUUA | -0.797 ± 0.11 | -0.443 ± 0.12 |
| ACGUAGCAAUAUUACGUGAC | -2.84 ± 0.14 | -2.94 ± 0.22 |
| AGGAAGCAAUAUUACGGCAA | -1.52 ± 0.096 | -0.574 ± 0.12 |
| UCGAAGCAAUAUUACGAAGU | -4.55 ± 0.32 | -1.43 ± 0.19 |
| UUGAAGCAAUAUUACGCGGG | -1.95 ± 0.1 | -0.668 ± 0.12 |
| GGGAAGCAAUAUUACGGCCG | -0.164 ± 0.12 | -0.0913 ± 0.15 |
| GUGUAGCAAUAUUACGCAAC | – | -0.636 ± 0.23 |

| Sequence | self-splicing fitness (ln) (30 °C) | self-splicing fitness (ln) (37 °C) |
| --- | --- | --- |
| UAGUAGCAAUAUUACGAGUG | -1.66 ± 0.081 | -0.549 ± 0.083 |
| GUGGAGCAAUAUUACGAGUC | – | -2.24 ± 0.31 |
| AAGGAGCAAUAUUACGUGCU | – | -2.92 ± 0.47 |
| UUAGAGCAAUAUUACGGAUC | – | -1.56 ± 0.4 |
| CAGCAGCAAUAUUACGCUAA | -2.47 ± 0.2 | -1.72 ± 0.13 |
| GGAGAGCAAUAUUACGUUGG | -4.09 ± 0.47 | -2.64 ± 0.36 |
| AGGAAGCAAUAUUACGACGA | -0.678 ± 0.092 | -0.0243 ± 0.13 |
| AUGCAGCAAUAUUACGGCAA | 0.0857 ± 0.12 | 0.0922 ± 0.12 |
| GUUCAGCAAUAUUACGUUUU | -0.661 ± 0.052 | -0.216 ± 0.062 |
| GGGUAGCAAUAUUACGCCAA | -0.499 ± 0.16 | -0.0896 ± 0.15 |
| GUGGAGCAAUAUUACGGAUC | -1.1 ± 0.25 | -0.583 ± 0.21 |
| CACGAGCAAUAUUACGUUAU | -3.4 ± 0.19 | -3.62 ± 0.31 |
| AGCCAGCAAUAUUACGACAG | -3.67 ± 0.27 | -2.74 ± 0.27 |
| CACAAGCAAUAUUACGACUG | -0.95 ± 0.046 | 0.337 ± 0.064 |
| GCGGAGCAAUAUUACGAUUA | -2.93 ± 0.22 | -1.73 ± 0.23 |
| CUCGAGCAAUAUUACGUUUG | -3.74 ± 0.24 | -2.11 ± 0.16 |
| UUCUAGCAAUAUUACGGCAG | 0.185 ± 0.42 | -0.821 ± 0.39 |
| CUCAAGCAAUAUUACGAUCU | -3.53 ± 0.26 | -2.59 ± 0.24 |
| CUACAGCAAUAUUACGGAAU | -4.13 ± 0.32 | -3.3 ± 0.26 |
| UCUAAGCAAUAUUACGGAUG | -2.9 ± 0.26 | -1.99 ± 0.29 |
| UCCAAGCAAUAUUACGUAUG | -4.08 ± 0.19 | -2.36 ± 0.2 |
| CAUCAGCAAUAUUACGUCAU | -3.06 ± 0.1 | -1.78 ± 0.12 |
| AAGGAGCAAUAUUACGUCUU | -1.9 ± 0.09 | -1.14 ± 0.13 |
| UGCGAGCAAUAUUACGACGA | -1.13 ± 0.13 | -0.458 ± 0.13 |
| AAUCAGCAAUAUUACGAACG | -0.399 ± 0.088 | -0.368 ± 0.1 |

| Sequence | self-splicing fitness (ln) (30 °C) | self-splicing fitness (ln) (37 °C) |
| --- | --- | --- |
| AGAUAGCAAUAUUACGACGG | -2.09 ± 0.2 | -1.55 ± 0.25 |
| AUGAAGCAAUAUUACGUGGG | -2.55 ± 0.11 | -2.67 ± 0.14 |
| CAGAAGCAAUAUUACGAGCU | -2.12 ± 0.18 | -1.77 ± 0.2 |
| AGCCAGCAAUAUUACGCUGA | -2.75 ± 0.16 | -1.87 ± 0.15 |
| GCGCAGCAAUAUUACGUGCG | -4.36 ± 0.28 | -2.7 ± 0.21 |
| GAGCAGCAAUAUUACGAACA | -1.47 ± 0.12 | -1.07 ± 0.15 |
| AGCAAGCAAUAUUACGUAAC | -5.08 ± 0.25 | -2.09 ± 0.14 |
| ACUAAGCAAUAUUACGGUGA | -1.54 ± 0.093 | -0.619 ± 0.13 |
| AUAAAGCAAUAUUACGAUAC | -1.39 ± 0.12 | -0.441 ± 0.14 |
| GCCGAGCAAUAUUACGUCGA | -2.36 ± 0.2 | -0.182 ± 0.14 |
| GAGCAGCAAUAUUACGCCGG | -4.11 ± 0.39 | -1.82 ± 0.3 |
| UCGAAGCAAUAUUACGAAAG | -3.24 ± 0.23 | -2.47 ± 0.44 |
| GAUAAGCAAUAUUACGGACC | -1.24 ± 0.25 | -1.4 ± 0.28 |
| CAUUAGCAAUAUUACGGAAC | – | -0.879 ± 0.24 |
| GGGAAGCAAUAUUACGAGCU | -0.998 ± 0.29 | -0.3 ± 0.36 |
| AAGAAGCAAUAUUACGGAUU | -1.37 ± 0.097 | -0.421 ± 0.12 |
| GCGUAGCAAUAUUACGUUUA | -2.16 ± 0.15 | -2.13 ± 0.15 |
| AUCAAGCAAUAUUACGUUCU | -0.858 ± 0.092 | -0.459 ± 0.12 |
| GACAAGCAAUAUUACGCACC | -1.43 ± 0.14 | -0.635 ± 0.19 |
| GCACAGCAAUAUUACGACCA | -0.551 ± 0.11 | -0.554 ± 0.14 |
| GUGUAGCAAUAUUACGAUAG | -3.84 ± 0.27 | -0.946 ± 0.19 |
| CGGUAGCAAUAUUACGAAAG | -0.203 ± 0.16 | -0.493 ± 0.16 |
| UUUCAGCAAUAUUACGUGCA | -0.77 ± 0.13 | 0.0542 ± 0.17 |
| UGCCAGCAAUAUUACGACUA | -0.442 ± 0.1 | -0.0497 ± 0.1 |
| CGUGAGCAAUAUUACGUUCC | -3.37 ± 0.31 | – |

| Sequence | self-splicing fitness (ln) (30 °C) | self-splicing fitness (ln) (37 °C) |
| --- | --- | --- |
| AUUCAGCAAUAUUACGGACG | -0.626 ± 0.08 | -0.168 ± 0.098 |
| GUCUAGCAAUAUUACGGGGU | -3.56 ± 0.19 | -2.04 ± 0.13 |
| CCUCAGCAAUAUUACGAAGG | -3.6 ± 0.34 | -1.84 ± 0.4 |
| GCCAAGCAAUAUUACGAUAU | -2.75 ± 0.12 | -2.01 ± 0.13 |
| UAUAAGCAAUAUUACGUAUU | -4.41 ± 0.37 | -1.61 ± 0.18 |
| UGACAGCAAUAUUACGCUGU | -4.01 ± 0.24 | -3.42 ± 0.27 |
| UCUGAGCAAUAUUACGUCAU | -3.81 ± 0.35 | -2.76 ± 0.2 |
| GCUUAGCAAUAUUACGUUAU | -1.38 ± 0.093 | -0.881 ± 0.12 |
| UCGUAGCAAUAUUACGCUCA | -0.522 ± 0.13 | -0.556 ± 0.16 |
| GCAUAGCAAUAUUACGGCGA | -0.526 ± 0.15 | -0.873 ± 0.15 |
| UACUAGCAAUAUUACGUUAA | -2.1 ± 0.18 | -1.43 ± 0.18 |
| AACUAGCAAUAUUACGACCA | -0.23 ± 0.079 | 0.118 ± 0.1 |
| UCUUAGCAAUAUUACGAUCC | -1.98 ± 0.38 | – |
| ACCCAGCAAUAUUACGCAUA | -1.19 ± 0.061 | -1.07 ± 0.066 |
| ACCAAGCAAUAUUACGCAGC | -1.83 ± 0.11 | -1.12 ± 0.13 |
| CGUGAGCAAUAUUACGUGGG | -2.91 ± 0.14 | -1.99 ± 0.11 |
| UUUAAGCAAUAUUACGCGAA | -1.43 ± 0.12 | -0.145 ± 0.15 |
| CCUAAGCAAUAUUACGCUUC | -3.16 ± 0.28 | – |
| AUUCAGCAAUAUUACGUUAA | -1.62 ± 0.12 | -0.923 ± 0.1 |
| CACGAGCAAUAUUACGCUCU | -2.57 ± 0.18 | -2.93 ± 0.28 |
| GUAUAGCAAUAUUACGCGUA | -2.69 ± 0.29 | -1.41 ± 0.22 |
| UGCAAGCAAUAUUACGAAAA | -2.32 ± 0.28 | -1.64 ± 0.17 |
| ACCCAGCAAUAUUACGAUCA | -0.557 ± 0.11 | -0.56 ± 0.13 |
